Molecular target: the molecule itself
Assay: co-sedimentation; pelleting assay, each protein at 1 μM in polymerization buffer (10 mM Tris-HCl pH 7.5, 25 mM KCl, 2 mM MgCl2, 1 mM DTT) with or without 1 mM ATP, 25°C for 10 min, 100,000 x g for 30 min at 4°C; SDS-PAGE of pellet and supernatant

B1: untagged recombinant MamK (natural protein, Magnetospirillum magneticum AMB-1, UniProt Q2W8Q6 1-347, looked up)
chain: MSEGEGQAKNRLFLGIDLGTSHTAVMSSRGKKFLLKSVVGYPKDVIGLKLLGRPYVVGDEAFEMRSYLDIRYPLQDGVLSEISDRDIEVARHLLTHVVKSAEPGPNDEICAVIGVPARASAANKALLLKMAQEVVHTALVVSEPFMVGYGLDKLINTIIVDIGAGTTDICALKGTVPGPEDQVTLTKAGNYVDERLQNAILERHPELQMNVNVACAVKEQFSFVGTPTEVASFEFRAAGKPVRADVTEPVKIACEALMPDIIESIETLLRSFQPEYQATVLQNIVFAGGGSRIRGLAAYVKEKLRPFGDANVTCVKDPTFDGCRGALRLAEELPPQYWRQLGDVSGS
notes: MamK, bacterial actin-like protein; 37.6 kDa as printed; The monomeric fractions were pooled; the protein forms filaments with ATP; also called purified MamK; MamK filaments; source: E. coli BL21, purified (ammonium sulfate precipitation, anion exchange, gel filtration)
Does B1 bind?
Result: binds

— paper doi:10.1101/2025.11.10.687720, “Magnetosome organelles are organized through interactions between McaA and McaB that alter the dynamics of the bacterial actin-like protein MamK” (bioRxiv, 2025)
